From patent publication US6602992B1, “Mammalian prestin polynucleotides” (Northwestern University, priority 2000, dated 2003)

Experiments:
prestin [1] = target: T1, prestin (Meriones unguiculatus, UniProt Q9JKQ2)
T1 sequence (Q9JKQ2 1-744): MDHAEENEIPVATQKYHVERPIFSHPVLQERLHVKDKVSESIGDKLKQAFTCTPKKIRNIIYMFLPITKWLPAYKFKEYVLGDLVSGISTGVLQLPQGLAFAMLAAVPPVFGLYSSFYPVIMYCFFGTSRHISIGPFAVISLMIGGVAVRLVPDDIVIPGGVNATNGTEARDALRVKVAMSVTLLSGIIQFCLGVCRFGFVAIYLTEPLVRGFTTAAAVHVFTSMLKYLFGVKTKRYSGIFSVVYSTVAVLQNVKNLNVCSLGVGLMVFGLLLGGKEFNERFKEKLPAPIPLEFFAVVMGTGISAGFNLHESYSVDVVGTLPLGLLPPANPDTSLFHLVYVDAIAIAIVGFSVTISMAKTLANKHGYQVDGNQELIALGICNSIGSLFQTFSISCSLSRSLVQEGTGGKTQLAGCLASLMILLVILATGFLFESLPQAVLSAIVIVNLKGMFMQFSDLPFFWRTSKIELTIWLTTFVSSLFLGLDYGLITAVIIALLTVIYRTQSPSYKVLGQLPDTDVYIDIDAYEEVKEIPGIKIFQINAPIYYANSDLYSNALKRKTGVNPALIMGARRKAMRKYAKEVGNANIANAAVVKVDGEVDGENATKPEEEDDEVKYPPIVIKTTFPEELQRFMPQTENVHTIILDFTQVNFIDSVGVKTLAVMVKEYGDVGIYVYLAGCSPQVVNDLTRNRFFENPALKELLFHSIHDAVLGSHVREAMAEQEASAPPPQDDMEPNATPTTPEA
Protocol: (§1) TSA201 cells, clones of human embryonic kidney 293 cells that express the simian virus 40 (SV40) large T-antigen in a stable manner, were cultured in DMEM with 5% fetal calf serum, 100 units of penicillin per millilter, and 100 micrograms of streptomycin per milliliters. Cells were plated for 24 hours before calcium phosphate transfection. The transfection reaction mixture contained:
(§2) a) control plasmid, pcDNA3.1; b) 2 micrograms of Pres cDNA plasmid; c) 2 micrograms of Pres cDNA plasmid plus 0.2 micrograms of green fluorescent protein (GFP) plasmid as transfection marker; or d) 2 micrograms of pendrin cDNA plasmid plus 0.2 micrograms GFP plasmid.
(§3) After 24 hours the transfected cells were used for electrophysiological and physical measurements.
Whole-cell voltage-clamp recordings were made with an Axopatch™ 200B amplifier (Axon Instruments, Foster City, Calif.) Recording pipettes had open tip resistances of 2-3 megaohms and were filled with internal solution containing 140 millimolar CsCl, 2 millimolar MgCl2, 10 millimolar EGTA, and 10 millimolar HEPES at pH 7.2. The external solution contained: 120 millimolar NaCl, 20 millimolar TEA-Cl, 2 millimolar CoCl2, 2 millimolar MgCl2, 10 millimolar HEPES, and 5 millimolar glucose at pH 7.2. Osmolarity was adjusted to 300 milliosmolar per liter with glucose. Capacitive currents were filtered at 5 kilohertz and digitized at 50 kilohertz using pClamp 7.0 software (Axon Instruments).
Voltage-dependent capacitance was measured using two methods. First, a standard P/4 linear subtraction procedure was employed to detect the presence of nonlinear charge movement. After nonlinear transient current was detected, a stair-step voltage protocol was used to obtain the parameters of charge movement. For each voltage step, the measured membrane capacitance (Cm) was plotted as a function of membfane voltage (Vm) and fitted with the derivative of a Boltzmann function: [formula] […]

prestin [2] = target: T1, prestin; conditions: 10 millimolar in external bathing solution, FIG. 6C
Protocol: as §1, §2, §3
TSA201 cells were drawn into a microchamber with gentle suction (FIG. 6A). The microchamber was mounted on a three-dimensional micromanipulator attached to the stage of a Zeiss inverted microscope. […] The command voltage, delivered between the electrolyte solutions (L15, Gibco BRL) surrounding and filling the microchamber, produces different voltage drops on the included and excluded cell membrane segments, determined by the electrical voltage-divider effect of these membranes. During motility measurements, the location of the cell within the slit was monitored via a video camera placed behind the slit. […]

TSA201 cells [3] = assay: Nonlinear capacitance / charge movement conveyed to transiently transfected TSA201 cells; type: cell-based, human; parameters: average charge density: unit not given here; conditions: for nonlinear capacitance: co-transfected with GFP
Protocol: The transfection reaction mixture contained:
Voltage-dependent capacitance was measured using two methods.
To test the sensor-motor function of prestin, voltage-dependent charge movement was measured in TSA201 cells after transient transfection of unmodified, native Pres cDNA. A second plasmid (pEGFP-N2) containing GFP cDNA was used as an independent marker for successful transfection of the cells. Transfection efficiency was 30-40% as judged from the fluorescence of GFP in transfected cells. […] In experiments conducted on cells co-transfected with prestin and GFP cDNA, transient capacitive currents were obtained from 91.8% of the GFP positive cells. […] The capacitive currents were directed towards the outside as the membrane potential was depolarized and toward the inside as it was hyperpolarized. Charges transferred at command onset and offset were approximately equal. The decay of transient currents was rapid (100-200 microseconds) and could be well-fitted with a single exponential. The voltage protocol used to estimate membrane capacitance and charge transfer across the membrane was an ascending stair-step voltage waveform (FIG. 5B). The membrane capacitance was fitted to the derivative of a first-order Boltzmann equation (FIG. 5C). In a group of seven cells, these curve-fits yielded values of Qmax=1.76±0.20 pC, V1/2=−57.30 ±2.98 mV, 1/a˜=kT/ze=28.00±2.13 mV, and Clin=20.50±2.65 pF, respectively (mean±SEM). The valence can be calculated from a, z=0.91. The average charge density, a possible measure of transiently transfected motor protein density in TSA201 cells, was […]. The numerical values that characterize the charge movement (V1/2, z) are quite similar to those obtained for OHCs. The maximum charge and charge density are less in the transfected cells, even though the linear capacitance is about the same as that of an average OHC. […]

TSA201 cells [4] = assay: Electromotility conveyed to transfected TSA201 cells (microchamber); type: cell-based, human; conditions: cells drawn into microchamber, 200 Hertz sinusoid
From the text: A change of photocurrent signified cell extension or contraction.

[5] = Boltzmann fit, seven cells, mean±SEM

Molecule: O=C([O-])c1ccccc1O.[Na+] [Sodium salicylate, sodium salicylate]
- effect on charge movement (prestin [1]): reversibly blocks charge movement
- transient currents after recovery, % of control (prestin [1]; 3 cells, after 2-5 minutes of washing in normal extracellular solution without sodium salicylate): 88.4±8.8 % of control
- transient currents, % of control (prestin [1]; 10 millimolar sodium salicylate applied locally, mean±SEM): 15.5±2.9 % of control
- effect on electromotile response (prestin [2]): reversible decrease in the electromotile response

B1: prestin: gerbil outer hair cell motor protein, 744 amino acids, 81.4 kiloDaltons, SEQ ID NO:1, expressed from Pres cDNA (protein, listed as Meriones unguiculatus)
chain: MDHAEENEIPVATQKYHVERPIFSHPVLQERLHVKDKVSESIGDKLKQAFTCTPKKIRNIIYMFLPITKWLPAYKFKEYVLGDLVSGISTGVLQLPQGLAFAMLAAVPPVFGLYSSFYPVIMYCFFGTSRHISIGPFAVISLMIGGVAVRLVPDDIVIPGGVNATNGTEARDALRVKVAMSVTLLSGIIQFCLGVCRFGFVAIYLTEPLVRGFTTAAAVHVFTSMLKYLFGVKTKRYSGIFSVVYSTVAVLQNVKNLNVCSLGVGLMVFGLLLGGKEFNERFKEKLPAPIPLEFFAVVMGTGISAGFNLHESYSVDVVGTLPLGLLPPANPDTSLFHLVYVDAIAIAIVGFSVTISMAKTLANKHGYQVDGNQELIALGICNSIGSLFQTFSISCSLSRSLVQEGTGGKTQLAGCLASLMILLVILATGFLFESLPQAVLSAIVIVNLKGMFMQFSDLPFFWRTSKIELTIWLTTFVSSLFLGLDYGLITAVIIALLTVIYRTQSPSYKVLGQLPDTDVYIDIDAYEEVKEIPGIKIFQINAPIYYANSDLYSNALKRKTGVNPALIMGARRKAMRKYAKEVGNANIANAAVVKVDGEVDGENATKPEEEDDEVKYPPIVIKTTFPEELQRFMPQTENVHTIILDFTQVNFIDSVGVKTLAVMVKEYGDVGIYVYLAGCSPQVVNDLTRNRFFENPALKELLFHSIHDAVLGSHVREAMAEQEASAPPPQDDMEPNATPTTPEA
- 1/a = kT/ze, slope factor (TSA201 cells [3]; [5]): 28.00±2.13 mV
- Qmax, maximum charge transfer (TSA201 cells [3]; [5]): 1.76±0.20 pC
- V1/2, voltage at which the maximum charge is equally distributed (TSA201 cells [3]; [5]): −57.30 ±2.98 mV
- valence z (TSA201 cells [3]; calculated from a): 0.91
- cells displaying transient capacitive currents (TSA201 cells [3]; cells transfected with Pres alone): 36.8%
- GFP positive cells displaying transient capacitive currents (TSA201 cells [3]; co-transfected with prestin and GFP cDNA): 91.8%
- decay of transient currents (TSA201 cells [3]; single exponential): 100-200 microseconds
- average charge density (TSA201 cells [3]; transiently transfected TSA201 cells): 5360
- cells tested showing electromotility (TSA201 cells [4]): about 22%

B2: human pendrin: chloride-iodide transport protein homologous to prestin, expressed from cDNA as specificity control (protein, UniProt O43511 1-780, looked up)
Pendrin: MAAPGGRSEPPQLPEYSCSYMVSRPVYSELAFQQQHERRLQERKTLRESLAKCCSCSRKRAFGVLKTLVPILEWLPKYRVKEWLLSDVISGVSTGLVATLQGMAYALLAAVPVGYGLYSAFFPILTYFIFGTSRHISVGPFPVVSLMVGSVVLSMAPDEHFLVSSSNGTVLNTTMIDTAARDTARVLIASALTLLVGIIQLIFGGLQIGFIVRYLADPLVGGFTTAAAFQVLVSQLKIVLNVSTKNYNGVLSIIYTLVEIFQNIGDTNLADFTAGLLTIVVCMAVKELNDRFRHKIPVPIPIEVIVTIIATAISYGANLEKNYNAGIVKSIPRGFLPPELPPVSLFSEMLAASFSIAVVAYAIAVSVGKVYATKYDYTIDGNQEFIAFGISNIFSGFFSCFVATTALSRTAVQESTGGKTQVAGIISAAIVMIAILALGKLLEPLQKSVLAAVVIANLKGMFMQLCDIPRLWRQNKIDAVIWVFTCIVSIILGLDLGLLAGLIFGLLTVVLRVQFPSWNGLGSIPSTDIYKSTKNYKNIEEPQGVKILRFSSPIFYGNVDGFKKCIKSTVGFDAIRVYNKRLKALRKIQKLIKSGQLRATKNGIISDAVSTNNAFEPDEDIEDLEELDIPTKEIEIQVDWNSELPVKVNVPKVPIHSLVLDCGAISFLDVVGVRSLRVIVKEFQRIDVNVYFASLQDYVIEKLEQCGFFDDNIRKDTFFLTVHDAILYLQNQVKSQEGQGSILETITLIQDCKDTLELIETELTEEELDVQDEAMRTLAS
- nonlinear capacitance (TSA201 cells [3]): None of the GFP-positive cells demonstrated nonlinear capacitance

B3: N-tagged prestin: full-length prestin with an Xpress epitope located upstream and in-frame (protein, UniProt P58743 1-744, looked up)
chain: MDHAEENEILAATQRYYVERPIFSHPVLQERLHTKDKVPDSIADKLKQAFTCTPKKIRNIIYMFLPITKWLPAYKFKEYVLGDLVSGISTGVLQLPQGLAFAMLAAVPPIFGLYSSFYPVIMYCFLGTSRHISIGPFAVISLMIGGVAVRLVPDDIVIPGGVNATNGTEARDALRVKVAMSVTLLSGIIQFCLGVCRFGFVAIYLTEPLVRGFTTAAAVHVFTSMLKYLFGVKTKRYSGIFSVVYSTVAVLQNVKNLNVCSLGVGLMVFGLLLGGKEFNERFKEKLPAPIPLEFFAVVMGTGISAGFNLKESYNVDVVGTLPLGLLPPANPDTSLFHLVYVDAIAIAIVGFSVTISMAKTLANKHGYQVDGNQELIALGLCNSIGSLFQTFSISCSLSRSLVQEGTGGKTQLAGCLASLMILLVILATGFLFESLPQAVLSAIVIVNLKGMFMQFSDLPFFWRTSKIELTIWLTTFVSSLFLGLDYGLITAVIIALLTVIYRTQSPSYKVLGKLPETDVYIDIDAYEEVKEIPGIKIFQINAPIYYANSDLYSNALKRKTGVNPAVIMGARRKAMRKYAKEVGNANMANATVVKADAEVDGEDATKPEEEDGEVKYPPIVIKSTFPEEMQRFMPPGDNVHTVILDFTQVNFIDSVGVKTLAGIVKEYGDVGIYVYLAGCSAQVVNDLTRNRFFENPALWELLFHSIHDAVLGSQLREALAEQEASAPPSQEDLEPNATPATPEA
modifications: full-length N-terminal Xpress tag
- nonlinear capacitance (TSA201 cells [3]): typical nonlinear capacitance curve is observed

B4: C-tagged prestin: full-length prestin tagged at the C-terminus with a V5 epitope (protein, UniProt P58743 1-744, looked up)
chain: MDHAEENEILAATQRYYVERPIFSHPVLQERLHTKDKVPDSIADKLKQAFTCTPKKIRNIIYMFLPITKWLPAYKFKEYVLGDLVSGISTGVLQLPQGLAFAMLAAVPPIFGLYSSFYPVIMYCFLGTSRHISIGPFAVISLMIGGVAVRLVPDDIVIPGGVNATNGTEARDALRVKVAMSVTLLSGIIQFCLGVCRFGFVAIYLTEPLVRGFTTAAAVHVFTSMLKYLFGVKTKRYSGIFSVVYSTVAVLQNVKNLNVCSLGVGLMVFGLLLGGKEFNERFKEKLPAPIPLEFFAVVMGTGISAGFNLKESYNVDVVGTLPLGLLPPANPDTSLFHLVYVDAIAIAIVGFSVTISMAKTLANKHGYQVDGNQELIALGLCNSIGSLFQTFSISCSLSRSLVQEGTGGKTQLAGCLASLMILLVILATGFLFESLPQAVLSAIVIVNLKGMFMQFSDLPFFWRTSKIELTIWLTTFVSSLFLGLDYGLITAVIIALLTVIYRTQSPSYKVLGKLPETDVYIDIDAYEEVKEIPGIKIFQINAPIYYANSDLYSNALKRKTGVNPAVIMGARRKAMRKYAKEVGNANMANATVVKADAEVDGEDATKPEEEDGEVKYPPIVIKSTFPEEMQRFMPPGDNVHTVILDFTQVNFIDSVGVKTLAGIVKEYGDVGIYVYLAGCSAQVVNDLTRNRFFENPALWELLFHSIHDAVLGSQLREALAEQEASAPPSQEDLEPNATPATPEA
modifications: full-length C-terminal V5 tag
- nonlinear capacitance (TSA201 cells [3]): typical nonlinear capacitance curve is observed
